Experimental findings from patent publication US20210130473A1, “TGFßR1 INHIBITOR-ASGR ANTIBODY CONJUGATES AND USES THEREOF” (Silverback Therapeutics, Inc., priority 2019, published 2021) are described below.

Assay [1] addresses T1, rat ASGR1 on CHO-S cells (rat) (UniProt P02706).
T1 sequence (looked up): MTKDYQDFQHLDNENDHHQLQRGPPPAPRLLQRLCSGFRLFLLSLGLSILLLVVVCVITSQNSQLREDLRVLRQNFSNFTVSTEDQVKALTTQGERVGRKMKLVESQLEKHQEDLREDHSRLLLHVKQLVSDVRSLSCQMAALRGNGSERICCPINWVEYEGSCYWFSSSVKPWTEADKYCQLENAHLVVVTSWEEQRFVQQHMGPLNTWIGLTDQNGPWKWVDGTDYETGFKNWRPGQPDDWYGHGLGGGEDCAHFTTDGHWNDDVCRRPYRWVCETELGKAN
Nature of the assay: Guava flow cytometry on CHO-S cells expressing rat ASGR1 (repeat of Table 16).

Assay [2] has as its target Cynomolgus macaque ASGR1 on CHO-S cells (Cynomolgus macaque). Nature of the assay: Guava flow cytometry on CHO-S cells expressing cynomolgus ASGR1 (repeat of Table 15).
The target of assay [3] is human ASGR1 (asialoglycoprotein receptor 1) on cells (human) (UniProt P07306). Nature of the assay: flow cytometry on HepG2 cells, anti-human IgG PE secondary, MFI (Geo Mean). A general note: In flow cytometry, cells or beads pass a laser one at a time.
Chain of human ASGR1 (asialoglycoprotein receptor 1) on cells (human) (P07306 whole entry): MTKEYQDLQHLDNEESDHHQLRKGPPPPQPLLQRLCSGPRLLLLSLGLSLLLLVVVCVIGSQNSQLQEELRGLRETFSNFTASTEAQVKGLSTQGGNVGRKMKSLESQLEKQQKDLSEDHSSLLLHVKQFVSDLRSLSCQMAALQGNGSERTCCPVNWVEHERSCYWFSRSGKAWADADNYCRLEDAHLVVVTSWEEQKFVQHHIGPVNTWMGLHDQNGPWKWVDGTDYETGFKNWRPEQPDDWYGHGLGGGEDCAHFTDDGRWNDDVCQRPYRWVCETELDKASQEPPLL
The target is the same in assay [4]. The assay is described as above. The source holds these as a separate data set.
Assay [5] deals with Cynomolgus macaque ASGR1 on CHO-S cells (Cynomolgus macaque). Nature of the assay: Guava flow cytometry on CHO-S cells expressing cynomolgus ASGR1.
Assay [6] concerns the target T1, rat ASGR1 on CHO-S cells (rat). Nature of the assay: Guava flow cytometry on CHO-S cells expressing rat ASGR1.

Where two headings read alike, the source gives them in different places.

B1: ASGR1 mAb-A (antibody, from another filing, V domains shown)
VH: QVQLVQSGTEVKKPGASVKVSCKASGYTFTNYDINWVRQATGQGLEWMGWMHPNSGNTGYAQKFQGRVTLTRNTSISTAYMELSSLRSEDTAVYYCASSSGWYYFDYWGQGTLVTVSS
VL: DIVMTQSPDSLAVSLGERATINCKSSQSILHSSNNNNYLAWFQQKPGQPPKLLLYWASTRESGVPDRFSGSGSGTDFTLTISSLQPEDVAVYYCQQYYNTPVTFGPGTKVGIK
In the case of B1, the EC50 (commonly the concentration giving half of the maximal effect) in assay [1] was determined as 3.22 nM; in assay [2], 1.07 nM; in assay [5] it was 1.07 nM; in assay [6], 3.22 nM. Also, the EC50 (read off the curve) (commonly the midpoint of the concentration-response curve) in assay [3] was 0.6 µg/mL; in assay [4], 0.5 µg/mL.

B2: ASGR1 mAb-B (antibody, from another filing, V domains shown)
VH: EVQLVESGGGLVKPGGSLRLSCAASGFTFSSYSMNWVRQAPGKGLEWVSSISGSSSYIYYADSVKGRFTISRDNAKNSLYLQMNSLRAEDTAVYFCARGGSRGFDPWGQGTLVTVSS
VL: DIQMTQSPSSLSASVGDRVTITCRASQSITSYLNWYQQKPGKAPKLLIYTASSLQSGVPSRFSGSGSGTDFTLTISSLQPEDFATYYCQQSHSFPFTFGPGTKVDIK
On to B2, for which the EC50 in assay [1] was 0.38 nM; in assay [2], 0.36 nM; in assay [5], 0.36 nM; in assay [6] it was 0.38 nM. In assay [4], this molecule yielded an EC50 (read off the curve) of 0.2 µg/mL.
